Patent US20220233552A1 (CONSEJO SUPERIOR DE INVESTIGACIONES CIENT FICAS CSIC, published 2022)

T1: protein tyrosine phosphatase-1B (PTP1B) (human, UniProt P18031 1-435)
T1 construct: Endogenous PTP1B of the cell lines, detected by co-immunoprecipitation, Western blot and mass spectrometry; also called PTPB1
T1 sequence (looked up): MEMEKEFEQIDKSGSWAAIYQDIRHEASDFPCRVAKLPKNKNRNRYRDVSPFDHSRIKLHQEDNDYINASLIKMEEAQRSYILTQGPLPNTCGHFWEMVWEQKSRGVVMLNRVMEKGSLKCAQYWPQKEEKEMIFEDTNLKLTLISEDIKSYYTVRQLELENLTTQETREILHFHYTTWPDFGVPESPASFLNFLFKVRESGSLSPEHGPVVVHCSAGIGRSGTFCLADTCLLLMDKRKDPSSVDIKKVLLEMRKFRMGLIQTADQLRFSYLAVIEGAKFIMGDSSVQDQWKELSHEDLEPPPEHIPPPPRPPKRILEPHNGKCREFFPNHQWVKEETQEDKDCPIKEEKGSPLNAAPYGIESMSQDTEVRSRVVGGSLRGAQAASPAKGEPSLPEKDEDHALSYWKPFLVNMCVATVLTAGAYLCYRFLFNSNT

B1: IL13Rα2 (wild type) (receptor, human, UniProt Q14627 27-380, looked up)
chain: DTEIKVNPPQDFEIVDPGYLGYLYLQWQPPLSLDHFKECTVEYELKYRNIGSETWKTIITKNLHYKDGFDLNKGIEAKIHTLLPWQCTNGSEVQSSWAETTYWISPQGIPETKVQDMDCVYYNWQYLLCSWKPGIGVLLDTNYNLFYWYEGLDHALQCVDYIKADGQNIGCRFPYLEASDYKDFYICVNGSSENKPIRSSYFTFQLQNIVKPLPPVYLTFTRESSCEIKLKWSIPLGPIPARCFDYEIEIREDDTTLVTATVENETYTLKTTNETRQLCFVVRSKVNIYCSDDGIWSEWSDKQCWEGEDLSKKTLLRFWLPFGFILILVIFVTGLLLRKPNTYPKMIPEFFCDT
notes: whole, on cells; Used as endogenous protein in lysates of human CRC, GBM and OC cell lines and as transfected wild type in RKO cells; also called IL13Rα2 WT; wild-type IL13Rα2
B2: IL13Rα2 Tyr369Phe mutant (receptor, human, UniProt Q14627 27-380, looked up)
chain: DTEIKVNPPQDFEIVDPGYLGYLYLQWQPPLSLDHFKECTVEYELKYRNIGSETWKTIITKNLHYKDGFDLNKGIEAKIHTLLPWQCTNGSEVQSSWAETTYWISPQGIPETKVQDMDCVYYNWQYLLCSWKPGIGVLLDTNYNLFYWYEGLDHALQCVDYIKADGQNIGCRFPYLEASDYKDFYICVNGSSENKPIRSSYFTFQLQNIVKPLPPVYLTFTRESSCEIKLKWSIPLGPIPARCFDYEIEIREDDTTLVTATVENETYTLKTTNETRQLCFVVRSKVNIYCSDDGIWSEWSDKQCWEGEDLSKKTLLRFWLPFGFILILVIFVTGLLLRKPNTFPKMIPEFFCDT
notes: whole, on cells; immunoprecipitated from lysates; also called Y369F mutated form; mutant Tyr369Phe

Columns and labels:
[1] = molecular target: T1, protein tyrosine phosphatase-1B (PTP1B); assay: IL13Rα2 immunoprecipitation with mass spectrometry (U251 lysates) and reciprocal co-IP/Western blot in CRC, GBM and OC cell lines
Description: (§1) FIG. 1. […] Protein position was tentatively assigned based on existing literature.
To characterize the protein interaction network of IL13Rα2, whole-cell lysates of the human GBM cell line U251 were immunoprecipitated and analyzed by mass spectrometry.

[2] = molecular target: T1, protein tyrosine phosphatase-1B (PTP1B); assay: co-immunoprecipitation (IL13Rα2 IP, PTP1B Western blot) in RKO transfectants
Description: as §1

binding result [1]	binding result [2]	Binder
binds		B1
	no binding	B2
